According to paper PMC9838835 (PLOS ONE, 2023):

Biological target: the molecule itself
Assay: native gel or EMSA

B1: Human butyrylcholinesterase (enzyme, UniProt P06276 29-602, looked up)
chain: EDDIIIATKNGKVRGMNLTVFGGTVTAFLGIPYAQPPLGRLRFKKPQSLTKWSDIWNATKYANSCCQNIDQSFPGFHGSEMWNPNTDLSEDCLYLNVWIPAPKPKNATVLIWIYGGGFQTGTSSLHVYDGKFLARVERVIVVSMNYRVGALGFLALPGNPEAPGNMGLFDQQLALQWVQKNIAAFGGNPKSVTLFGESAGAASVSLHLLSPGSHSLFTRAILQSGSFNAPWAVTSLYEARNRTLNLAKLTGCSRENETEIIKCLRNKDPQEILLNEAFVVPYGTPLSVNFGPTVDGDFLTDMPDILLELGQFKKTQILVGVNKDEGTAFLVYGAPGFSKDNNSIITRKEFQEGLKIFFPGVSEFGKESILFHYTDWVDDQRPENYREALGDVVGDYNFICPALEFTKKFSEWGNNAFFYYFEHRSSKLPWPEWMGVMHGYEIEFVFGLPLERRDNYTKAEEILSRSIVKRWANFAKYGNPNETQNNSTSWPVFKSTEQKYLTLNTESTRIMTKLRAQQCRFWTSFFPKVLEMTGNIDEAEWEWKAGFHRWNNYMMDWKNQFNDYTSKKESCVGL
notes: also called BChE; C4 (tetramer)
stoichiometry N: 4
